The text below walks through data of paper PMC3872205 (Journal of molecular biology, 2013).

Holding throughout (test): ITC
(In general: In ITC the heat of successive injections is recorded.)

The target in assay [1] is Rb^380-816∆PL/S780A with S807 and S811 substituted for alanine, phosphorylated (UniProt P06400).
Assay [2] has as its target Rb^380-816∆PL/S780A, phosphorylated (UniProt P06400).
Assay [3] addresses Rb^380-800∆PL/S780A, phosphorylated (UniProt P06400).
Assay [4] deals with Rb^380-794∆PL/S780A, phosphorylated (UniProt P06400).
Assay [5] concerns the target Rb^380-800∆PL/S780A, unphosphorylated (UniProt P06400).
The target in assay [6] is Rb^380-816∆PL/S780A with S788 and S795 substituted to alanine, phosphorylated (UniProt P06400).
The target of assay [7] is Rb^380-794∆PL/S780A, unphosphorylated (UniProt P06400).
In assay [8] the target is Rb^380-816∆PL/S780A, unphosphorylated (UniProt P06400).
The target of assay [9] is Rb^380-816∆PL/S780A with S788 and S795 substituted to alanine, unphosphorylated (UniProt P06400).
Assay [10] has as its target Rb construct phosphorylated at Rb^IDL (T356/T373) (construct of Table 2).
Assay [11] deals with Rb^53-800∆NL/∆PL/S780A, phosphorylated (UniProt P06400).
The target in assay [12] is Rb construct phosphorylated at RbC^N (S788/S795) (construct of Table 2).
Assay [13] addresses Rb construct phosphorylated at Rb^PL (S608/S612) (construct of Table 2).
Assay [14] addresses Rb^53-800∆NL/∆PL/S780A, phosphorylated (UniProt P06400 53-800, S780A, phosphorylated with Cdk; Rb^IDL (T356/T373) and RbC^N (S788/S795) sites).
The target of assay [15] is T1, Rb^380-816/780A, unphosphorylated (UniProt P06400 380-816, 780A).
T1 sequence (looked up): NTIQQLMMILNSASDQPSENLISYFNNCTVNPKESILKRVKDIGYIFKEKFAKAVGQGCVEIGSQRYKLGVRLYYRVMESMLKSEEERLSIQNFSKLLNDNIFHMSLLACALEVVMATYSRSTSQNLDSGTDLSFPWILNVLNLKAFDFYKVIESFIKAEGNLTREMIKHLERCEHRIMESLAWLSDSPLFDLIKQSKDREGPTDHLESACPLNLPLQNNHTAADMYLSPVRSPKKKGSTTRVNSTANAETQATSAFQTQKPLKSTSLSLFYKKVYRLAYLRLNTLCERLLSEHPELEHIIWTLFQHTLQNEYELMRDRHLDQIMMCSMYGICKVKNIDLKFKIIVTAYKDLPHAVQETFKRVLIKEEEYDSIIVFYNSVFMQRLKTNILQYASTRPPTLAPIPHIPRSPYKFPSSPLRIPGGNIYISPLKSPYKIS

For assay [16], the target named is Rb^53-800∆NL/∆PL/S780A, unphosphorylated (UniProt P06400 53-800, S780A).

As to “E2F1 transactivation domain (E2F1^TD, residues 372-437) (from UniProt Q01094 372-437) (domain or fragment)”, the Kd (usually the free concentration of one partner at which half of the binding sites on the other are occupied at equilibrium, for simple one-to-one binding) in assay [1] was found to be 510 nM; in assay [2], 470 nM; in [3], 510 nM; in assay [4], 270 nM; in assay [5] it was 50 nM; in assay [6], 130 nM. Besides, the Kd is 120 nM in assay [7], 70 nM in assay [8] and 90 nM in [9].

Turning to “E2F2 transactivation domain (E2F2^TD) (domain or fragment)”, the fold inhibition of binding against the unphosphorylated construct in [10] came to 2 fold. The fold reduction in binding affinity against the unphosphorylated construct in [11] came to 22 fold.

“E2F3 transactivation domain (E2F3^TD) (domain or fragment)”: the fold rise of Kd against the unphosphorylated construct in [12] came out at 10 fold; in assay [13], 9 fold. Further, the fold inhibition of binding against the unphosphorylated construct in assay [10] is 25 fold.

B1: E2F1 transactivation domain (E2F1^TD, residues 372-437) (domain or fragment, UniProt Q01094 372-437, looked up)
chain: DRLSPLVAADSLLEHVREDFSGLLPEEFISLSPPHEALDYHFGLEEGEGIRDLFDCDFGDLTPLDF
As for B1, the equilibrium dissociation constant (Kd) in assay [14] was 30 µM; in assay [15], 70 nM; in assay [16], 130 nM.
